Results from patent US9045527 (dated 2015).
Where no end group is shown, it is not given here.

B1: E^RhVQSTRL metallopeptide (peptide)
peptide: Ac-E(dirhodium)VQSTRL-OH
modifications: also: dirhodium metal complex at Glu side-chain carboxylate
B2: QLD^RhVTR metallopeptide (peptide)
peptide: Ac-QLD(dirhodium)VTR
modifications: also: dirhodium metal complex at Asp side-chain carboxylate
B3: E^RhWPTSII metallopeptide (peptide)
peptide: Ac-E(dirhodium)WPTSII-OH
modifications: also: dirhodium metal complex at Glu side chain
B4: VQDTRL (peptide)
peptide: Ac-VQDTRL-OH
B5: EVQSTRL (peptide)
peptide: Ac-EVQSTRL-OH
B6: EWPTSII (peptide)
peptide: Ac-EWPTSII-OH
B7: E(Rh)VQSTRL (peptide)
peptide: Ac-E(dirhodium)VQSTRL-OH
modifications: also: dirhodium metal complex at Glu side-chain carboxylate
B8: VQD^RhTRL metallopeptide (peptide)
peptide: Ac-VQD(dirhodium)TRL-OH
modifications: also: dirhodium metal complex at Asp side-chain carboxylate
B9: QLDVTR peptide (scrambled control sequence) (peptide)
peptide: Ac-QLDVTR
B10: E(Rh)WPTSII (peptide)
peptide: Ac-E(dirhodium)WPTSII-OH
modifications: also: dirhodium metal complex at Glu side chain

How the values were obtained:
[1] = biological target: T1, CAL PDZ domain (CALP), wild type (UniProt Q9HD26 278-362); assay: fluorescence anisotropy displacement; Fig 9B
CALP-H301A mutant = CALP-H301A mutant (UniProt Q9HD26 278-362); assay: fluorescence anisotropy displacement; Fig 9B
[2] = biological target: T1, CAL PDZ domain (CALP), wild type; assay: fluorescence anisotropy displacement; Fig 9A; upper bound, nonspecific Rh inhibition
N1P1 = assay: fluorescence anisotropy displacement; Fig 9B
[3] = biological target: T1, CAL PDZ domain (CALP), wild type; assay: fluorescence anisotropy displacement; Fig 9A

| Binder | Ki [1] [nM] | Ki (N1P1) [nM] | also measured |
| --- | --- | --- | --- |
| B1 | 430 |  | Ki (CALP-H301A mutant): 11300 nM |
| B2 |  |  | Ki [2]: 10000 nM |
| B3 | 1300 |  |  |
| B4 |  | 700 |  |
| B5 |  | 710 |  |
| B6 |  | > 500000 |  |
| B7 |  | 32 |  |
| B8 | ~49000 |  |  |
| B9 |  |  | Ki [3]: > 500000 nM |
| B10 |  | > 50000 |  |
